From US20240360194A1, “New Peptides as Potent and Selective GIP Receptor Agonists” (Sanofi, priority 2021, published 2024)
Numbered stars: 1 amine (or outer) side, 2 acyl side, 3 side chain; on linkers, the order of the positions; unused ones are H or OH. Square brackets hold non-standard residues; d marks the D form. Side chains are listed from the residue outwards. Ends that are not written are not given here. * marks the point of attachment. C18 diacid = O=C(O)CCCCCCCCCCCCCCCCC(=O)*; γGlu = O=C(O)[C@H](CCC(=O)[*:2])N[*:1]; AEEA = NCCOCCOCC(=O)O; Aib = CC(C)(N)C(=O)O

Key:
human GIP receptor [1] = biological target: T1, human GIP receptor (human, UniProt P48546 22-466); assay: cell-based or functional assay
T1 sequence (looked up): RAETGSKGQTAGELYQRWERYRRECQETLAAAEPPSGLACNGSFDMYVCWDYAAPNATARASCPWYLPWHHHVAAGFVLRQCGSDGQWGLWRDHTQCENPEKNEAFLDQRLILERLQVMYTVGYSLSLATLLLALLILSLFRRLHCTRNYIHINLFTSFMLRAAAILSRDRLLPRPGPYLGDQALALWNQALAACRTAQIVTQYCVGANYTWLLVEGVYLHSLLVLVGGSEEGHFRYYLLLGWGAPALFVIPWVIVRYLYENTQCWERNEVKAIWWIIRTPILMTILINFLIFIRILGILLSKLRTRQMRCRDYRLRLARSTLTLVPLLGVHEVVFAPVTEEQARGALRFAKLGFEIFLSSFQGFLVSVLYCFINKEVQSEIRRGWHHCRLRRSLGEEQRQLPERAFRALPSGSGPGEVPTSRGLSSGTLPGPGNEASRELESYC

human GLP-1 receptor [2] = biological target: T2, human GLP-1 receptor (human, UniProt P43220 24-463); assay: displacement of [125I]GLP-1 from HEK-293 membranes expressing hGLP-1R (SPA beads)
T2 construct: whole, on cells; also called hGLP-1R; hGLP-1 R

human GIP receptor [3] = biological target: T1, human GIP receptor; assay: cell-based or functional assay; remark: listed apart in the source
human GLP-1 receptor [4] = biological target: T2, human GLP-1 receptor; assay: cell-based or functional assay

B1: SEQ ID NO: 27 (peptide)
peptide: Y[Aib]EGTFISDLSI[Aib]K([AEEA-AEEA-γGlu-C18 diacid])DRIHQEEFIEWLLAQEPSSGAPPPS-NH2
modifications: N-terminus assumed
SMILES: CC[C@H](C)[C@H](NC(=O)[C@H](Cc1ccccc1)NC(=O)[C@H](CCC(=O)O)NC(=O)[C@H](CCC(=O)O)NC(=O)[C@H](CCC(N)=O)NC(=O)[C@H](Cc1c[nH]cn1)NC(=O)[C@@H](NC(=O)[C@H](CCCNC(=N)N)NC(=O)[C@H](CC(=O)O)NC(=O)[C@H](CCCCNC(=O)COCCOCCNC(=O)COCCOCCNC(=O)CC[C@H](NC(=O)CCCCCCCCCCCCCCCCC(=O)O)C(=O)O)NC(=O)C(C)(C)NC(=O)[C@@H](NC(=O)[C@H](CO)NC(=O)[C@H](CC(C)C)NC(=O)[C@H](CC(=O)O)NC(=O)[C@H](CO)NC(=O)[C@@H](NC(=O)[C@H](Cc1ccccc1)NC(=O)[C@@H](NC(=O)CNC(=O)[C@H](CCC(=O)O)NC(=O)C(C)(C)NC(=O)[C@@H](N)Cc1ccc(O)cc1)[C@@H](C)O)[C@@H](C)CC)[C@@H](C)CC)[C@@H](C)CC)C(=O)N[C@@H](CCC(=O)O)C(=O)N[C@@H](Cc1c[nH]c2ccccc12)C(=O)N[C@@H](CC(C)C)C(=O)N[C@@H](CC(C)C)C(=O)N[C@@H](C)C(=O)N[C@@H](CCC(N)=O)C(=O)N[C@@H](CCC(=O)O)C(=O)N1CCC[C@H]1C(=O)N[C@@H](CO)C(=O)N[C@@H](CO)C(=O)NCC(=O)N[C@@H](C)C(=O)N1CCC[C@H]1C(=O)N1CCC[C@H]1C(=O)N1CCC[C@H]1C(=O)N[C@@H](CO)C(N)=O
notes: Synthetic peptide, 39 residues (Glu at 30)
hGIPR EC50 (cAMP, human adipocytes) (human GIP receptor [1]): 0.6 nM | hGIPR Emax (cAMP, human adipocytes) (human GIP receptor [1]): 116% | IC50 (human GLP-1 receptor [2]): 465 nM | EC50 hGIPR 0% HSA (cAMP, HEK-293) (human GIP receptor [3]): 0.29 pM | EC50 hGIPR 0.1% BSA (cAMP, HEK-293) (human GIP receptor [3]): 32 pM | EC50 hGLP-1R 0.1% BSA (cAMP, HEK-293) (human GLP-1 receptor [4]): > 10 nM

B2: SEQ ID NO: 21 (peptide)
peptide: Y[Aib]EGTFISDLSI[Aib]K([AEEA-AEEA-γGlu-C18 diacid])ERIHQ[Aib]EFIEWLLAQGPSSGAPPPS-NH2
modifications: N-terminus assumed
SMILES: CC[C@H](C)[C@H](NC(=O)[C@H](CCCNC(=N)N)NC(=O)[C@H](CCC(=O)O)NC(=O)[C@H](CCCCNC(=O)COCCOCCNC(=O)COCCOCCNC(=O)CC[C@H](NC(=O)CCCCCCCCCCCCCCCCC(=O)O)C(=O)O)NC(=O)C(C)(C)NC(=O)[C@@H](NC(=O)[C@H](CO)NC(=O)[C@H](CC(C)C)NC(=O)[C@H](CC(=O)O)NC(=O)[C@H](CO)NC(=O)[C@@H](NC(=O)[C@H](Cc1ccccc1)NC(=O)[C@@H](NC(=O)CNC(=O)[C@H](CCC(=O)O)NC(=O)C(C)(C)NC(=O)[C@@H](N)Cc1ccc(O)cc1)[C@@H](C)O)[C@@H](C)CC)[C@@H](C)CC)C(=O)N[C@@H](Cc1c[nH]cn1)C(=O)N[C@@H](CCC(N)=O)C(=O)NC(C)(C)C(=O)N[C@@H](CCC(=O)O)C(=O)N[C@@H](Cc1ccccc1)C(=O)N[C@H](C(=O)N[C@@H](CCC(=O)O)C(=O)N[C@@H](Cc1c[nH]c2ccccc12)C(=O)N[C@@H](CC(C)C)C(=O)N[C@@H](CC(C)C)C(=O)N[C@@H](C)C(=O)N[C@@H](CCC(N)=O)C(=O)NCC(=O)N1CCC[C@H]1C(=O)N[C@@H](CO)C(=O)N[C@@H](CO)C(=O)NCC(=O)N[C@@H](C)C(=O)N1CCC[C@H]1C(=O)N1CCC[C@H]1C(=O)N1CCC[C@H]1C(=O)N[C@@H](CO)C(N)=O)[C@@H](C)CC
notes: Synthetic peptide, 39 residues
hGIPR EC50 (cAMP, human adipocytes) (human GIP receptor [1]): 2.8 nM | hGIPR Emax (cAMP, human adipocytes) (human GIP receptor [1]): 120% | IC50 (human GLP-1 receptor [2]): 146 nM | EC50 hGIPR 0% HSA (cAMP, HEK-293) (human GIP receptor [3]): 0.19 pM | EC50 hGIPR 0.1% BSA (cAMP, HEK-293) (human GIP receptor [3]): 8.36 pM | EC50 hGLP-1R 0.1% BSA (cAMP, HEK-293) (human GLP-1 receptor [4]): > 10 nM

B3: SEQ ID NO: 36 (peptide)
peptide: Y[Aib]EGTFISDLSI[Aib]LEEQK([AEEA-AEEA-γGlu-C18 diacid])Q[Aib]EFIEWLLAQGPSSGAPPPS-NH2
modifications: N-terminus assumed
SMILES: CC[C@H](C)[C@H](NC(=O)[C@H](Cc1ccccc1)NC(=O)[C@H](CCC(=O)O)NC(=O)C(C)(C)NC(=O)[C@H](CCC(N)=O)NC(=O)[C@H](CCCCNC(=O)COCCOCCNC(=O)COCCOCCNC(=O)CC[C@H](NC(=O)CCCCCCCCCCCCCCCCC(=O)O)C(=O)O)NC(=O)[C@H](CCC(N)=O)NC(=O)[C@H](CCC(=O)O)NC(=O)[C@H](CCC(=O)O)NC(=O)[C@H](CC(C)C)NC(=O)C(C)(C)NC(=O)[C@@H](NC(=O)[C@H](CO)NC(=O)[C@H](CC(C)C)NC(=O)[C@H](CC(=O)O)NC(=O)[C@H](CO)NC(=O)[C@@H](NC(=O)[C@H](Cc1ccccc1)NC(=O)[C@@H](NC(=O)CNC(=O)[C@H](CCC(=O)O)NC(=O)C(C)(C)NC(=O)[C@@H](N)Cc1ccc(O)cc1)[C@@H](C)O)[C@@H](C)CC)[C@@H](C)CC)C(=O)N[C@@H](CCC(=O)O)C(=O)N[C@@H](Cc1c[nH]c2ccccc12)C(=O)N[C@@H](CC(C)C)C(=O)N[C@@H](CC(C)C)C(=O)N[C@@H](C)C(=O)N[C@@H](CCC(N)=O)C(=O)NCC(=O)N1CCC[C@H]1C(=O)N[C@@H](CO)C(=O)N[C@@H](CO)C(=O)NCC(=O)N[C@@H](C)C(=O)N1CCC[C@H]1C(=O)N1CCC[C@H]1C(=O)N1CCC[C@H]1C(=O)N[C@@H](CO)C(N)=O
notes: as for B2
hGIPR EC50 (cAMP, human adipocytes) (human GIP receptor [1]): 0.3 nM | hGIPR Emax (cAMP, human adipocytes) (human GIP receptor [1]): 104% | IC50 (human GLP-1 receptor [2]): 115 nM | EC50 hGIPR 0% HSA (cAMP, HEK-293) (human GIP receptor [3]): 0.12 pM | EC50 hGIPR 0.1% BSA (cAMP, HEK-293) (human GIP receptor [3]): 28.8 pM | EC50 hGLP-1R 0.1% BSA (cAMP, HEK-293) (human GLP-1 receptor [4]): > 10 nM

B4: SEQ ID NO: 29 (peptide)
peptide: Y[Aib]EGTFISDLSI[Aib]K([AEEA-AEEA-γGlu-C18 diacid])DRIHQ[Aib]EFIEWLLAQEPSSGAPPPS-NH2
modifications: N-terminus assumed
SMILES: CC[C@H](C)[C@H](NC(=O)[C@H](CCCNC(=N)N)NC(=O)[C@H](CC(=O)O)NC(=O)[C@H](CCCCNC(=O)COCCOCCNC(=O)COCCOCCNC(=O)CC[C@H](NC(=O)CCCCCCCCCCCCCCCCC(=O)O)C(=O)O)NC(=O)C(C)(C)NC(=O)[C@@H](NC(=O)[C@H](CO)NC(=O)[C@H](CC(C)C)NC(=O)[C@H](CC(=O)O)NC(=O)[C@H](CO)NC(=O)[C@@H](NC(=O)[C@H](Cc1ccccc1)NC(=O)[C@@H](NC(=O)CNC(=O)[C@H](CCC(=O)O)NC(=O)C(C)(C)NC(=O)[C@@H](N)Cc1ccc(O)cc1)[C@@H](C)O)[C@@H](C)CC)[C@@H](C)CC)C(=O)N[C@@H](Cc1c[nH]cn1)C(=O)N[C@@H](CCC(N)=O)C(=O)NC(C)(C)C(=O)N[C@@H](CCC(=O)O)C(=O)N[C@@H](Cc1ccccc1)C(=O)N[C@H](C(=O)N[C@@H](CCC(=O)O)C(=O)N[C@@H](Cc1c[nH]c2ccccc12)C(=O)N[C@@H](CC(C)C)C(=O)N[C@@H](CC(C)C)C(=O)N[C@@H](C)C(=O)N[C@@H](CCC(N)=O)C(=O)N[C@@H](CCC(=O)O)C(=O)N1CCC[C@H]1C(=O)N[C@@H](CO)C(=O)N[C@@H](CO)C(=O)NCC(=O)N[C@@H](C)C(=O)N1CCC[C@H]1C(=O)N1CCC[C@H]1C(=O)N1CCC[C@H]1C(=O)N[C@@H](CO)C(N)=O)[C@@H](C)CC
notes: as for B1
hGIPR EC50 (cAMP, human adipocytes) (human GIP receptor [1]): 5.3 nM | hGIPR Emax (cAMP, human adipocytes) (human GIP receptor [1]): 119% | IC50 (human GLP-1 receptor [2]): 287 nM | EC50 hGIPR 0% HSA (cAMP, HEK-293) (human GIP receptor [3]): 0.15 pM | EC50 hGIPR 0.1% BSA (cAMP, HEK-293) (human GIP receptor [3]): 15.2 pM | EC50 hGLP-1R 0.1% BSA (cAMP, HEK-293) (human GLP-1 receptor [4]): > 10 nM

B5: SEQ ID NO: 30 (peptide)
peptide: Y[Aib]EGTFISDLSI[Aib]K([AEEA-AEEA-γGlu-C18 diacid])DRIHQ[Aib]EFIEWLLAQRPSSGAPPPS-NH2
modifications: N-terminus assumed
SMILES: CC[C@H](C)[C@H](NC(=O)[C@H](CCCNC(=N)N)NC(=O)[C@H](CC(=O)O)NC(=O)[C@H](CCCCNC(=O)COCCOCCNC(=O)COCCOCCNC(=O)CC[C@H](NC(=O)CCCCCCCCCCCCCCCCC(=O)O)C(=O)O)NC(=O)C(C)(C)NC(=O)[C@@H](NC(=O)[C@H](CO)NC(=O)[C@H](CC(C)C)NC(=O)[C@H](CC(=O)O)NC(=O)[C@H](CO)NC(=O)[C@@H](NC(=O)[C@H](Cc1ccccc1)NC(=O)[C@@H](NC(=O)CNC(=O)[C@H](CCC(=O)O)NC(=O)C(C)(C)NC(=O)[C@@H](N)Cc1ccc(O)cc1)[C@@H](C)O)[C@@H](C)CC)[C@@H](C)CC)C(=O)N[C@@H](Cc1c[nH]cn1)C(=O)N[C@@H](CCC(N)=O)C(=O)NC(C)(C)C(=O)N[C@@H](CCC(=O)O)C(=O)N[C@@H](Cc1ccccc1)C(=O)N[C@H](C(=O)N[C@@H](CCC(=O)O)C(=O)N[C@@H](Cc1c[nH]c2ccccc12)C(=O)N[C@@H](CC(C)C)C(=O)N[C@@H](CC(C)C)C(=O)N[C@@H](C)C(=O)N[C@@H](CCC(N)=O)C(=O)N[C@@H](CCCNC(=N)N)C(=O)N1CCC[C@H]1C(=O)N[C@@H](CO)C(=O)N[C@@H](CO)C(=O)NCC(=O)N[C@@H](C)C(=O)N1CCC[C@H]1C(=O)N1CCC[C@H]1C(=O)N1CCC[C@H]1C(=O)N[C@@H](CO)C(N)=O)[C@@H](C)CC
notes: Synthetic peptide, 39 residues (Arg at 30)
hGIPR EC50 (cAMP, human adipocytes) (human GIP receptor [1]): 0.5 nM | hGIPR Emax (cAMP, human adipocytes) (human GIP receptor [1]): 138% | IC50 (human GLP-1 receptor [2]): 151 nM | EC50 hGIPR 0% HSA (cAMP, HEK-293) (human GIP receptor [3]): 0.48 pM | EC50 hGIPR 0.1% BSA (cAMP, HEK-293) (human GIP receptor [3]): 11 pM | EC50 hGLP-1R 0.1% BSA (cAMP, HEK-293) (human GLP-1 receptor [4]): > 10 nM
